Data published in US20070202098A1.
pIC50, pKd: −log10 of the molar value.

Biological target: His-tagged V158 FcγRIIIa (human) (UniProt P08637)
Experiment: SPR, receptor immobilized, antibody flowed

Chain of His-tagged V158 FcγRIIIa (human) (P08637 17-208 F176V): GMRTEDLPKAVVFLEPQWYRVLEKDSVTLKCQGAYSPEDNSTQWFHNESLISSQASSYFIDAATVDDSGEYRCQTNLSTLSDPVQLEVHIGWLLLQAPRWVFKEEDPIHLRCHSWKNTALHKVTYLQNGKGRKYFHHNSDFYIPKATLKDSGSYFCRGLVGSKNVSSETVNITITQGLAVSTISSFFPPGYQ

Point of comparison: “alemtuzumab Fc variant 37 S298A/E333A/K334A (antibody)”, pKd 7.41. Against it:
- alemtuzumab Fc variant 3 V264I (antibody) — 0.22 log units lower, 7.19
- alemtuzumab Fc variant 22 I332E (antibody) — within 0.2 log units, 7.51
- alemtuzumab Fc variant 30 V264I/I332E (antibody) — 0.36 log units higher, 7.77
- alemtuzumab Fc variant 35 S298A (antibody) — within 0.2 log units, 7.28

Biological target: His-tagged V158 FcγRIIIa (human) (UniProt P08637)
Experiment: SPR

Substance “alemtuzumab Fc variant 30 V264I/I332E (antibody)” has a Fold (Kd, over WT) of 4 fold.

Biological target: extracellular region of human F158 FcγRIIIa, GST-tagged (human) (UniProt P08637)
Experiment: SPR

Chain of extracellular region of human F158 FcγRIIIa, GST-tagged (human) (P08637 17-208): as the sequence (P08637 17-208 F176V) above, with V160F counted along it

For “alemtuzumab Fc variant 30 V264I/I332E (antibody)”, the Fold (Kd, over WT) was 14 fold.

“alemtuzumab Fc variant 30 V264I/I332E (antibody)” was tested, and the pKd was 7.28.

Biological target: extracellular region of human V158 FcγRIIIa fused with glutathione S-Transferase (GST) (human) (UniProt P08637)
Experiment: AlphaScreen competition

Chain of extracellular region of human V158 FcγRIIIa fused with glutathione S-Transferase (GST) (human) (P08637 17-208 F176V): as the sequence (P08637 17-208 F176V) above

Point of comparison: “trastuzumab Fc variant 257 E318R (antibody)”, FcγRIIIa Fold 1.06 fold. Against it:
- alemtuzumab Fc variant 30 V264I/I332E (antibody) — higher, 12.5 fold
- alemtuzumab Fc variant 90 S239D/I332E (antibody) — higher, 56.1 fold
- trastuzumab Fc variant 219 S239D/I332E/A330I (antibody) — higher, 59.1 fold
- trastuzumab Fc variant 221 P230A (antibody) — higher, 1.09 fold
- trastuzumab Fc variant 222 E233D (antibody) — lower, 0.85 fold
- trastuzumab Fc variant 223 P230A/E233D (antibody) — lower, 0.92 fold
- trastuzumab Fc variant 224 P230A/E233D/I332E (antibody) — higher, 1.87 fold
- trastuzumab Fc variant 238 E272Y (antibody) — higher, 8.7 fold
- trastuzumab Fc variant 239 V273I (antibody) — lower, 0.79 fold
- trastuzumab Fc variant 240 K274T (antibody) — higher, 1.41 fold
- trastuzumab Fc variant 241 K274E (antibody) — higher, 6.11 fold
- trastuzumab Fc variant 242 K274R (antibody) — higher, 1.41 fold
- trastuzumab Fc variant 243 K274L (antibody) — higher, 1.09 fold
- trastuzumab Fc variant 244 K274Y (antibody) — the same, 1.06 fold
- trastuzumab Fc variant 245 F275W (antibody) — higher, 1.11 fold
- trastuzumab Fc variant 246 N276S (antibody) — lower, 0.41 fold
- trastuzumab Fc variant 247 N276E (antibody) — lower, 0.87 fold
- trastuzumab Fc variant 248 N276R (antibody) — lower, 0.66 fold
- trastuzumab Fc variant 250 N276Y (antibody) — lower, 0.56 fold
- trastuzumab Fc variant 251 Y278T (antibody) — higher, 1.87 fold
- trastuzumab Fc variant 252 Y278E (antibody) — lower, 0.9 fold
- trastuzumab Fc variant 254 Y278W (antibody) — lower, 0.41 fold
- trastuzumab Fc variant 255 E283R (antibody) — lower, 0.67 fold
- trastuzumab Fc variant 256 V302I (antibody) — lower, 1.01 fold
- trastuzumab Fc variant 263 V323I (antibody) — lower, 0.83 fold
- trastuzumab Fc variant 266 S324R (antibody) — lower, 0.71 fold
- trastuzumab Fc variant 267 S324I (antibody) — higher, 1.15 fold
- trastuzumab Fc variant 268 S324V (antibody) — higher, 1.17 fold
- trastuzumab Fc variant 270 S324Y (antibody) — lower, 0.98 fold
- trastuzumab Fc variant 272 K326I (antibody) — higher, 1.43 fold
- trastuzumab Fc variant 273 K326T (antibody) — higher, 1.88 fold
- trastuzumab Fc variant 281 E333T (antibody) — lower, 0.78 fold
- trastuzumab Fc variant 282 E333H (antibody) — lower, 0.75 fold
- trastuzumab Fc variant 288 T335D (antibody) — higher, 2.79 fold
- trastuzumab Fc variant 289 T335R (antibody) — higher, 2.58 fold
- trastuzumab Fc variant 290 T335Y (antibody) — higher, 1.56 fold
- trastuzumab Fc variant 291 L234I/L235D (antibody) — lower, 0.07 fold
- trastuzumab Fc variant 292 V240I/V266I (antibody) — higher, 1.72 fold
- trastuzumab Fc variant 293 S239D/A330Y/I332E/L234I (antibody) — higher, 22.4 fold
- trastuzumab Fc variant 294 S239D/A330Y/I332E/L235D (antibody) — higher, 7.04 fold
- trastuzumab Fc variant 295 S239D/A330Y/I332E/V240I (antibody) — higher, 28 fold
- trastuzumab Fc variant 296 S239D/A330Y/I332E/V264T (antibody) — higher, 17.7 fold
- trastuzumab Fc variant 298 S239D/A330Y/I332E/K326E (antibody) — higher, 64.1 fold

For “alemtuzumab Fc variant 30 V264I/I332E (antibody)”, the Fold (IC50, over WT) was 12.8 fold.

“alemtuzumab Fc variant 30 V264I/I332E (antibody)” gave a pIC50 of 9.30.

Biological target: extracellular region of human F158 FcγRIIIa, GST-tagged (human) (UniProt P08637)
Experiment: AlphaScreen competition

Work on “alemtuzumab Fc variant 30 V264I/I332E (antibody)” yielded a Fold (IC50, over WT) of 15.6 fold.

“alemtuzumab Fc variant 30 V264I/I332E (antibody)” gave a pIC50 of 8.96.

Biological target: FcγRIIIa on human PBMC effector cells (heterozygous V158/F158 or allotype not stated) (human) (UniProt P08637)
Experiment: cell-based or functional assay

Chain of FcγRIIIa on human PBMC effector cells (heterozygous V158/F158 or allotype not stated) (human) (P08637 17-254): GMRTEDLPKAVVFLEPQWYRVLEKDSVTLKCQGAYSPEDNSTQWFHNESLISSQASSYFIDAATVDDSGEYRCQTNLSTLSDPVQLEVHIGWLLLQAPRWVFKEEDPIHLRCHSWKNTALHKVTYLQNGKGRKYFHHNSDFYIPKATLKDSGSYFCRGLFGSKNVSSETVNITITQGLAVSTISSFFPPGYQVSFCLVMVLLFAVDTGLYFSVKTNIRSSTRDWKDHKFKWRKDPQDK

Point of comparison: “alemtuzumab Fc variant 90 S239D/I332E (antibody)”, ADCC EC50, DoHH-2 targets, human PBMCs 3 ng/mL. Against it:
- alemtuzumab Fc variant 30 V264I/I332E (antibody) — within 1.5-fold, 4 ng/mL

Point of comparison: “alemtuzumab Fc variant 90 S239D/I332E (antibody)”, ADCC Fold Improvement Over WT 3.3 fold. Against it:
- alemtuzumab Fc variant 30 V264I/I332E (antibody) — lower, 2.5 fold

Point of comparison: “alemtuzumab Fc variant 90 S239D/I332E (antibody)”, ADCC log(EC50), DoHH-2 targets, human PBMCs 0.49 log(ng/ml). Against it:
- alemtuzumab Fc variant 30 V264I/I332E (antibody) — higher, 0.6 log(ng/ml)
